In a protein production outcome set (Wang et al. 2014):

experiment: label from the status in PepcDB records

Sequence	protein production
GGGTRFALVAGTTETAGRAGISAAGADPELMSVTPAADAELVTYGTPVRTDVTPVSPSGCPTPALVTRAAREVLGFDVTVVDGGLAEKTGAPTVSVGARPGKDIAEQDPVSTAHGAFAAARQFGQSLPADELYLGETIPGGTTTALGVLRALGEDGMVSSSLPENPTAQKSEVVAEGLQASSLEPGDAANEPKRAVRRMGDPVLATLAGLTAGAVESDTAVTLAGGSQCVAVAALVRHGGYEGPLGLATTSYVADDESADVRASVDRLDLDLTVTDPGFDRSDHVAMERFVAGEAKEGVGMGGALALADRAGI	failed
GKKDKEKIIDDFKVAVVTQPLSENKVQYNMVEEMAKEYEEENKIDKDKDGQTKVKQTIKHVVLPENFTSNIDSAINKIVKLADDKEVQAIVVSTDQAGLLPALQKVKEKRPEIITISAPMGDDKNQLSQFVDVNLGVSAEERGKVLAERSKEMGAKAFIHYASTDDLKDVNIAKRLEMIKETCKNIGLPFVQVNTPNINTEEDKNKVKQFLNEDIEKQVKKYGKDINVFGVNEYMDEVILTKALELKYIVAEQSNPSPIQTYPSVMGLKISEKDAQNYDKINDMISEKAKAFGMSNRLGGYPMPMDAFLPSLAIYLATEMVKQDLTQEDVCDPDYLEAFTELRFGIGSEFTPLTEVLYNYQSVILSQLIY	not failed
GLQAEWMQMSSLGTVDAPNFIVGNPWDDKLIFKLLSGLSKPVSSYPNTFEWQCKLPAIKPKTEFQLGSKLVYVHHLLGEGAFAQVYEATQGDLNDAKNKQKFVLKVQKPANPWEFYIGTQLMERLKPSMQHMFMKFYSAHLFQNGSVLVGELYSYGTLLNAINLYKNTPEKVMPQGLVISFAMRMLYMIEQVHDCEIIHGDIKPDNFILGNGFLEQDDEDDLSAGLALIDLGQSIDMKLFPKGTIFTAKCETSGFQCVEMLSNKPWNYQIDYFGVAATVYCMLFGTYMKVKNEGGECKPEGLFRRLPHLDMWNEFFHVMLNIPDCHHLPSLDLLRQKLKKVFQQHYTNKIRALRNRLIVLLLECKRSRK	failed
GMFGLVFNTRRATFADEKVREGLSYALDFEWLNRNILGGSFKRTQSYWQNSPLGAYGNAADERELALLGDAAKTMPAELLAGTYAMPTTDGTGADRKVLKLAVDKLKEAGYSIKNGKMSDANGRQLAFEIMTQNPAQERIALAYQRSLNLIGVAMGIRSVDDGQYQARSNSFDYDMIIRSLPSSLSPGMEQLNRWNSLSRDAQGSFNYAGVANPDIDRMIEALLQARSTEDFQAAVRAYDRLLVAGHYIIPLYYIG	failed
GMQGYFFNTRRDLFKDIRVREALSYAFDFEWSNKNLFFGQYTRTKSFFDNSELASFGTPSPQEREWLTPFKEQLPEGIFDQPFTLPTTKGDGNIRPQLKRAQQLLKEAGYEIKNKKLIHTTTGQPFVFELLLLSPAMERVALPFKRNLATLGIEMKIRTIDLTQYINRLREFDYDMIVGVIGQSLSPGNEQRYYWHSSSKDERGSKNYAGIDHPAVDRLVEMVVNAKDRRELVDYTRALDRVLLWNHYVIPHFHNR	not failed
GNIEAALFGLIALYAQTKVIDSIIYGGDAGSMATIVTGNPDGIAAKVIYELDRTATVLPAKGAYSRKDTSVLLCTVRKSQFVKLKRIVYEEDPDAFVMVTETSEVLGLGFRAFKDSL	failed
GNPEIKGRRRQIAQEIAYEDTSSQIKHASAVVSNPKDIAVAIGYMPEKYKAPWIIAMGVNLRAKRIIAEAEKYGVPIMRNVPLAHQLLDEGKELKFIPETTYEAVGEILLYITSLNAQNLENKNINQFDNL	not failed
GPPSRRSENRVVVSGLPPSGSWQDLKDHMREAGDVCYADVYRDGTGVVEFVRKEDMTYAVRKLDNTKFRSHEGETAYIRVKVDGPRSPSYGRSRSSGPSSG	not failed
GQDTGEDNLAIKGITTLNDLTMVNVSGPGMKGMVGMASRVFGAMSSAGVSIVLITQSSSEYSISFCIEADDKLKAQQVLADAFELELKDGLLEPVDFIDDVSIVTLVGDGMRTSRGVASRFFSSLAEVNVNIVAIAQGSSERAISAVIPEDKISEAIKACHENLFNSKYF	not failed
GQDYLDIIGRLLPVLPYNLAIIGADGQVLLMNPPMSRITGMSLRQFVMYPSDWVVQEDKAAVADAVRRYSSGRALSGEISVRLIAKPEETVILTLTGIRHLGESALMISLQESASENEIKQQMAQTTRMQAIGQLAGGVAHDFNNILTAI	failed
GQLSIKLWFDKVGHQLIVTILGAKDLPSREDGRPRNPYVKIYFLPDRSDKNKRRTKTVKKTLEPKWNQTFIYSPVHRREFRERMLEITLWDQARVREEESEFLGEILIELETALLDDEPHWYKLQTHD	not failed
GRDLLLAVDVSGSMDYRDMRWQDDEISRLELIKKLFGDFIEDRRGDRVGLILFGSQAYLQAPLTFDRHTVRVWLDEAQIGIAGKNTAIGDAIGLAVKRLRQRPAESRVLVLITDGANTGGQIAPQIAAQLAAEQQVKIYTIGIGADPQQGGVPGLFGFNPGLDLDEPTLRGIAESTGGEYFRARSSAELESISATLDRLEPVA	failed
GREQMASFESAYVALSRMKQHVQVYTDNREGWIKAIKNSPEKATAHDILEPRNDRAVKTADLLFGRARPLDETAAGRAALQQSGLAQGSSPGKFISPGKKYPQPHVALPAFDKNGKAAGIWLSPLTDRDGRLEAIGGEGRIMGNEDARFVALQNSRNGESLLAGNMGEGVRMARDNPDTGVVVRLAGDDRPWNPGAMTGGRVWAEPAPVAPVPQAGADIILPPEVLAQRAAEEQQRREMEKKAEQTAREMAGEARKAG	failed
GRKVGFRKGPRPGAGPREGGFRNDGPRGEGGYRNDGPRGEGGYRNDGPRGEGPRNEGPRGEGYRNDGPRGEGFRGPRFNNGPSNGYENRQDNNRFGEKRRSAQKPLKVDDEAQFPTLC	failed
GSAEILVPEVYHGPGKRGTGFYNADQKINRDITIEFIKKMGIRNVLDGFGGTGIRGIRISKETDSAVTISEVSPDSYRLIRDNVERNGSQASVINDSFECVLQHGAYEYVDVDPYGSPVPYLDAALMGVKRNGFLGVTATDQSALTGSVPHKTRIRYDALIKNDTFRHEMGIRLLIGYMAKRAASLGRFIDPLISIWHGHYYRVFVRVRKGFEGAGRMMQNLGYVNKHNLLSGIYQDMDEGPVWKGNLQDNAVAEAVLASAGHKAFNPEENRLLFCDLTDIARARHTSLPDIESVIDALSSSGHAASRTMFSPTGIKTDASCDLVESLMMDTLHRRS	failed
GSAQEEQSANEVAVSYSKSLKAAEMDSLQLPVDADGYITIFDGKTFNGWRGYGKDRVPSKWTIEDGCIKFNGSGGGEAQDGDGGDLIFAHKFKNFELEMEWKVSKGGNSGIFYLAQEVTSKDKDGNDVLEPIYISAPEYQVLDNDNHPDAKLGKDNNRQSASLYDMIPAVPQNAKPFGEWNKAKIMVYKGTVVHGQNDENVLEYHLWTKQWTDLLQASKFSQDKWPLAFELLNNCGGENHEGFIGMQDHGDDVWFRNIRVKVLD	not failed
GSDSSLFETYNVELVRKDGQSLGIRIVGYVGTSHTGEASGIYVKSVIPGSAAYHNGHIQVNDKIVAVDGVNIQGFANHDVVEVLRNAGQVVHLTLVRRKTSSSTSPLEPPSDRGTV	not failed
GSESFDILTDPAQAKEVGTALGIFHQLLSDLSPSQLVDTLPGFHHTPIYLQQYQRALAQNPKLTGSLGPEINHCQRVIKTWLDQCGVLETAKAQGQLPLRLMHGDPKVNNILFDRQSGKAVSVIDLDTTKPGLIHYDLGDCLRSGCNLLGEETENWSAVEFDLDLCRAILEGYLPQCQHFLTAADYDYLCPAIVLISFELGLRFFTDYLNGDRYFKVKYPEHNLIRALVQFQLASHIQSQEDAIRRMIEDIRG	failed
GSHMLGGKGRPSGVGGYRILVTTSRRPSPRIRSFVKDLSATIPGAFRFTRGHYSMEELAREAIIRGADRIVVVGERRGNPGIIRVYAVEGPERPDNIVSFIVKGVSLSRERRWGLPSLRGGEVLVARPLDSGVAVEFADAFVIAFHARLKPPEAAGYVEAVIESLDARTVAVTFRYGGAPVGPMLRLGKPAEMVKRGRRV	not failed
GSSGSSGMASTFTSDTLPADHKAAIRQMKHALRAQLGDVQQIFNQLSDDIATRVAEINALKAQGDAVWPVLSYADIKAGHVTAEQREQIKRRGCAVIKGHFPREQALGWDQSMLDYLDRNRFDEVYKGPGDNFFGTLSASRPEIYPIYWSQAQMQARQSEEMANAQSFLNRLWTFESDGKQWFNPDVSVIYPDRIRRRPPGTTSKGLGAHTDSGALERWLLPAYQRVFANVFNGNLAQYDPWHAAHRTEVEEYTVDNTTKCSVFRTFQGWTALSDMLPGQGLLHVVPIPEAMAYVLLRPLLDDVPEDELCGVAPGRVLPVSEQWHPLLIEALTSIPKLEAGDSVWWHCDVIHSVAPVENQQGWGNVMYIPAAPMCEKNLAYAHKVKAALEKGASPGDFPREDYETNWEGRFTLADLNIHGKRALGMDV	not failed
GSSGSSGMQLEIQVALNFIISYLYNKLPRRRVNIFGEELERLLKKKYEGHWYPEKPYKGSGFRCIHIGEKVDPVIEQASKESGLDIDDVRGNLPQDLSVWIDPFEVSYQIGEKGPVKVLYVDDNSGPSSG	not failed
GTIGPVADAEPHAAALGEAFQLTNFLRDVGEDLDRGRVYLPADELAAFGVDTELLAHSRRSGTTDQRIVRALAHLISVTRSVYRDAEPGIAMLDRRVQPGIRTAFVLYSRILDEIERGGYRVLDRRATVSRRNRWATALPQFARLAV	failed
GTVSWNLREMLAHAEETRKLMPICMDVRAIMATIQRKYKGIKIQEGIVDYGVRFFFYTSKEPVASIITKLNSLNEPLVTMPIGYVTHGFNLEEAARCMRSLKAPAVVSVSSPDAVTTYNGYLTSSSKTSEEHFVETVSLAGSYRDWSYSGQRTELGVEFLKRGDKIVYHTLESPVEFHLDGEVLSLDKLKSLLS	not failed
GYDHKKMGITAKGAWVGVQRHFRERDINVQQDSISVIGIGDMAGDVFGNGLLMSDKLQLVAAFNHLHIFIDPNPEPASSFAERERLFNLPRSSWTDYDTSIMSAGGGIFPRSLKSIAITEQMKARFDIKADKLTPTELLHALLKAPVDLLWNGGIGTYVKSSEESHADVGDKANDALRVDGNELRCKVVGEGGNLGMTQLGRVEFGLNGGATNTDFIDNAGGVDCSDHEVNIKILLNEVVQAGDMTEKQRNQLLESMTDEVGHLVLGNNYKQTQALSLAARRAYERIAEYKRLMSDLEARGKLD	not failed
GYIQMPLFRLHVQVFTPEREIPLGTVCLLHGYLEHSGIYQPIIREILDQGFSVVTYDLPGHGLSDGSPANIQNFDHYQQVLMAVYQYVKNADQLPKPWLGIGQSTGGAIWMHHLLEYAEKRQDPIVDRVLLLSPLIRPAKTAWWHNSVGLGIIRRIRRQVPRHFRRNNHNPEFLRFIRLKDPLQPRMMGMDWILAMSKWMFEMEQRPACRIPVWLAQGALDQTVDWRYNIEFIRRKFRLQTLLMLEEGSHQLINERADIRAALTGLIPAFLHAR	failed
HGGHRQYAKEILSTSSAAMASQRSFLGLEPTIKKIPAFRAVYLRHKGYNKSIALSWQKLMAWGFEHQISSQARQIGIHHDNPSITPLAECRYIAALEVEEGFRAQGLLGVMEFPPTLCAVFEVQGRYGDVLGLIDYVYHEWLPQSGYEAKTIPAFALYQKNHFLDPLGNFQLDFCLPVGVV	failed
HHIAYTEWGIFEPELPTVICVHGYTRNSRDFDELANYLSSKGRHVFCPDIAGRGDSSWFKNPRYYNFTQYVKDMTVLMARTNAHQIDWIGTSMGGIIGMILAAMPNSPINKLVLNDIGPQIPIHGLRRIAKYAGKAPDFKSLEEAKQHFKASYADFGITNEKQWDIFTKNSVEQRGPNLYVTKMDPAIKKSKSILQIISEFFRHPHKALEGIFYDINLWSIWKQIKCPVIVIHGVNSDILTSEIITQMKKTHALTEVYEVENAGHAPALLDLTVHQRIEDWLATH	failed
